Data: US8563520B2, “Treatment of ocular disease with inhibitors of alpha2 macroglobulin protein” (McGill University, priority 2005, dated 2013)

System: retinal ganglion cells (RGCs)
Experiment: RGC loss after intraocular injection of α2 macroglobulin protein in normal eyes
Format: in vivo, rat
Description: RGCs were labeled with 3% DII (1,1-dioctadecyl-3,3,3,3-tetramethylindocarbocyanine perchlorate) or with 3% fluorogold. Briefly, Wistar rats were anesthetized and their heads were mounted in a stereotactic apparatus.
7 days after dye injection, the vasculature of the rats were perfused-fixed (transcardiac perfusion in phosphate-buffer (PB), followed by 4% PFA in PB) and the eyes were enucleated. After post-fixing for 1 hour cuts were made through the sclera to form a Maltese cross pattern and retinas detached from the eyecup at the optic nerve head. The retinas were flat-mounted on glass slides (vitreous side up) air-dried and cover-slipped with mounting medium (Molecular Probes). The retinas were observed under fluorescence microscopy (Zeiss). […] RGCs were recognized in flat mounted retinas by the presence of retrogradely transported dye and by morphology. RGCs in all 4 quadrants (16 images per retina) were averaged and presented as […] of area counted.
To evaluate the potential role of α2 macroglobulin in the death of RGCs, α2 macrobglobulin protein was microinjected in normal eyes to determine whether glaucoma-like RGC death ensued. In this paradigm, a total of 1-2 μg of α2 macroglobulin were delivered by a single intraocular injection in normal eyes, and surviving RGCs were counted at days 14 or 28 post-injection, by retrograde labeling. […]

B1: α2m: α2 macroglobulin protein injected intraocularly into normal rat eyes (protein, UniProt P06238 28-1472, looked up)
Alpha-2-macroglobulin: SAPQKPIYMVMVPSLLHAGTPEKACFLFSHLNETVAVRVSLESVRGNQSLFTDLVVDKDLFHCTSFTVPQSSSDEVMFFTVQVKGATHEFRRRSTVLVKKKESLVFAQTDKPIYKPGQTVRFRVVSLDESFHPLNELIPLLYIQDPKNNRIAQWQNFNLEGGLKQLSFPLSSEPTQGSYKVVIRTESGRTVEHPFSVEEFVLPKFEVRVTVPETITILEEEMNVSVCGIYTYGKPVPGRVTVNICRKYSNPSNCFGEESVAFCEKLSQQLDGRGCFSQLVKTKSFQLKRQEYEMQLDVHAKIQEEGTGVEETGKGLTKITRTITKLSFVNVDSHFRQGIPFVGQVLLVDGRGTPIPYETIFIGADEANLYINTTTDKHGLARFSINTDDIMGTSLTVRAKYKDSNACYGFRWLTEENVEAWHTAYAVFSPSRSFLHLESLPDKLRCDQTLEVQAHYILNGEAMQELKELVFYYLMMAKGGIVRAGTHVLPLKQGQMRGHFSILISMETDLAPVARLVLYAILPNGEVVGDTAKYEIENCLANKVDLVFRPNSGLPATRALLSVMASPQSLCGLRAVDQSVLLMKPETELSASLIYDLLPVKDLTGFPQGADQREEDTNGCVKQNDTYINGILYSPVQNTNEEDMYGFLKDMGLKVFTNSNIRKPKVCERLRDNKGIPAAYHLVSQSHMDAFLESSESPTETRRSYFPETWIWDLVVVDSAGVAEVEVTVPDTITEWKAGAFCLSNDTGLGLSPVVQFQAFQPFFVELTMPYSVIRGEAFTLKATVLNYLPTCIRVAVQLEASPDFLAAPEEKEQRSHCICMNQRHTASWAVIPKSLGNVNFTVSAEALNSKELCGNEVPVVPEQGKKDTIIKSLLVEPEGLENEVTFNSLLCPMGAEVSELIALKLPSDVVEESARASVTVLGDILGSAMQNTQDLLKMPYGCGEQNMVLFAPNIYVLDYLNETQQLTQEIKTKAIAYLNTGYQRQLNYKHRDGSYSTFGDKPGRNHANTWLTAFVLKSFAQARKYIFIDEVHITQALLWLSQQQKDNGCFRSSGSLLNNAMKGGVEDEVTLSAYITIALLEMSLPVTHPVVRNALFCLDTAWKSARGGAGGSHVYTKALLAYAFALAGNQDTKKEILKSLDEEAVKEEDSVHWTRPQKPSVSVALWYQPQAPSAEVEMTAYVLLAYLTTEPAPTQEDLTAAMLIVKWLTKQQNSHGGFSSTQDTVVALHALSKYGSATFTRAKKAAQVTIHSSGTFSTKFQVNNNNQLLLQRVTLPTVPGDYTVKVTGEGCVYLQTSLKYSVLPREEEFPFTVVVQTLPGTCEDPKAHTSFQISLNISYTGSRSESNMAIADVKMVSGFIPLKPTVKMLERSVHVSRTEVSNNHVLIYLDKVSNQTVNLSFTVQQDIPIRDLKPAVVKVYDYYEKDEFAVAKYSAPCSTDYGNA
RGC losses compared to vehicle PBS (2 weeks after single intraocular injection of 1-2 μg in normal eyes): 11±3%
RGC losses compared to vehicle PBS (4 weeks after single intraocular injection of 1-2 μg in normal eyes): 28±11%
